Numbering of substitutions follows the chain as printed. One block for each binder: values may come before it.
Experiments:
[1] = biological target: T1, murine PD-1 (Sino biological) (murine, UniProt Q02242 25-167, limits assumed); assay: ELISA on plate-coated murine PD-1
T1 sequence (looked up): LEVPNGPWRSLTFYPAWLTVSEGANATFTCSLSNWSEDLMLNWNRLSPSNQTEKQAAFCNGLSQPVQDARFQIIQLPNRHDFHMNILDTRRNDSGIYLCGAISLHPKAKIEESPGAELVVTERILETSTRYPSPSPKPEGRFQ
Method: 3.3.1 Cross-reactivity to cynomolgus PD-1 and murine PD-1: Cross-reactivity was measured by ELISA. Plates (Nunc) were coated with cynomolgus PD-1 (Sino Biological) and murine PD-1 (Sino biological) at 1 μg/ml overnight at 4° C. After blocking and washing, […] antibodies were added to the plates and incubated at room temperature for 1 h. The plates were then washed and subsequently incubated with secondary antibody goat anti rat IgG1 HRP (Bethyl) and goat anti rat IgG2b HRP (Bethyl) for 45 min. After washing, TMB substrate was added and the interaction was stopped by 2M HCl. The absorbance at 450 nm was read using a microplate reader (Molecular Device).

[2] = biological target: T2, human PD-1 expressed on cells (human, UniProt Q15116 25-288); assay: FACS on CHO-S cells expressing human PD-1
T2 construct: whole, on cells; also called PD-1 expressing CHO cell; PD-1 transfected CHO-S cells
Method: (§1) 3.1 Binding affinity of PD-1 antibodies to cell surface PD-1 molecules tested by flow cytometry (FACS): Antibody binding affinity to cell surface PD-1 was performed by FACS analysis. CHO-S cells expressing human PD-1 were transferred in to 96-well U-bottom plates (BD) at a density of 5×10⁵ cells/ml. Tested antibodies were 1:2 serially diluted in wash buffer (1×PBS/1% BSA) and incubated with cells at 4° C. for 1 h. The secondary antibody goat anti-human IgG Fc FITC (3.0 moles FITC per mole IgG, (Jackson Immunoresearch Lab) was added and incubated at 4° C. in the dark for 1 h. The cells were then washed once and resuspended in 1×PBS/1% BSA, and analyzed by flow cytometery (BD). Fluorescence intensity will be converted to bound molecules/cell based on the quantitative beads Quantum™ MESF Kits, Bangs Laboratories, Inc.). KD was calculated using Graphpad Prism5.

[3] = biological target: T2, human PD-1 expressed on cells; assay: FACS on CHO-S cells expressing human PD-1, antibody in formulation buffer
Method: as §1

[4] = biological target: T2, human PD-1 expressed on cells; assay: FACS on CHO-S cells expressing human PD-1, antibody in 1xPBS pH 7.4
Method: as §1

T2 sequence (Q15116 25-288): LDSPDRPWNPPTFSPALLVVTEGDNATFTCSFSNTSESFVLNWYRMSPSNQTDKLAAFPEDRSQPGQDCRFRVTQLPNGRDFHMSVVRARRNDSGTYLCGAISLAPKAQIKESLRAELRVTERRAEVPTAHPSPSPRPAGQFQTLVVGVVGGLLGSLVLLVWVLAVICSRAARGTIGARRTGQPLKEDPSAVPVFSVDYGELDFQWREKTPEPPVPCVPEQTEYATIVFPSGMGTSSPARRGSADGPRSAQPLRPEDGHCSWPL

B1: 1.7.3 hAb (antibody, V domains shown)
VH: QLQLQESGPGLVKPSETLTLTCTVSGDSISSTTYYWVWIRQPPGKGLEWIGSISYSGNTYYNPSLKSRVTISVDTSKNHFSLKLSSVAATDTALYYCARHLGYNGRYLPFDYWGQGTLVTVSS
VL: QSALTQPASVSGSPGQSITISCTGTSSDVGFYNYVSWYQQHPGKAPELMIYDVTNRPSGVSDRFSGSKSGNTASLTISGLQAEDEADYYCSSYTSISTWVFGGGTKLTVL
notes: fully human monoclonal antibody with a human constant region of IgG4 isotype
binding result [1]: no binding (tested: 1 g/ml antibodies (so in the source)) | EC50 [2]: ~2 nM

B2: 1.103.11-v2 hAb (antibody, IgG4, V domains shown)
VH: B1 VH with G26A, N58S, I71V, H79Q, S85N
VL: B1 VL with T54S
notes: human constant region of IgG4 isotype
EC50 [3]: ~3.12 nM | EC50 [4]: ~2.52 nM

B5: 1.139.15 hAb (antibody, V domains shown)
VH: QLQLQESGPGLVKPSETLSLTCTVSGGSISSTTYYWGWIRQPPGKGLEWIGSISYSGTTYYNPSLKSRVTIPVDTSKNQISLKLSSVTAADTSLYYCARHLGYNSNWYPFDYWGQGTLVTVSS
VL: QSALTQPPSVSGSPGQSVTISCTGTSSDVGSYNRVSWYQQPPGTAPEVIIYEVSNRPSGVPDRFSGSKSGNTASLTISGLQAEDEADYYCSSYTSSSTWVFGGGTKLTVL
notes: as for B1
binding result [1]: no binding (tested: 1 g/ml antibodies (so in the source)) | EC50 [2]: ~2 nM

Continued, in another order:

EC50 [2]: ~2 nM
B3: 1.49.9 hAb (antibody, V domains shown)
VH: B1 VH with T19S, D27G, T32S, V37G, N58S, H79Q, A88T, A89D, T90A, L94V
VL: B1 VL with L48V, T54S
notes: as for B1
binding result [1]: no binding (tested: 1 g/ml antibodies (so in the source))

EC50 [2]: ~2 nM
B4: 1.153.7 hAb (antibody, V domains shown)
VH: EVQLLESGGGLVQPGGSLRLSCAASGFTFSSHAMSWVRQAPGKGLEWVSTITGGGGSIYYADSVKGRFTISRDNSKNTLYLQMNSLRAEDTAVYYCAKNRAGEGYFDYWGQGTLVTVSS
VL: SYELTQPLSVSVALGQTARITCGGDNIGNKDVHWYQQKPGQAPVLVIYRDSNRPSGIPEGFSGSNSGNTATLTISRAQAGDEADYYCQVWDSIWVFGGGTKLTVL
notes: as for B1
binding result [1]: no binding (tested: 1 g/ml antibodies (so in the source))

Source: patent US20190270815A1 (WUXI BIOLOGICS IRELAND, published 2019)
